The Human Domainome abundance scans (Beltran et al. 2025)

B1: RNA-binding E3 ubiquitin-protein ligase MEX3C, residues 325 to 391; numbered along this chain, Q5U5Q3 (parent)
chain: GQTTVQVRVPYRVVGLVVGPKGATIKRIQQQTHTYIVTPSRDKEPVFEVTGMPENVDRAREEIEMHI

Variants of: B1
Test: abundance fitness (aPCA) (normalised: wild type 0, dead -1); higher = more abundant; growth selection in yeast, the domain comes from the species named
Conditions: Homo sapiens

Abundance fitness of substitutions, site by site:
V13: I -0.366 | K 0.216 | L 0.114 | M 0.075 | N -0.207 | P -0.809 | Q 0.169 | R -0.25 | S 0.127 | T -0.006 | W -0.098 | Y -0.073
V14: C -0.89 | D -0.529 | E -0.51 | F -0.315 | G -0.746 | I 0.114 | K -0.636 | M -0.185 | P -0.703 | Q -0.881 | R -0.372 | S -0.603 | T -0.524 | W -0.349 | Y -0.51
G15: A -0.067 | C -0.59 | D 0.018 | E -0.121 | H -0.059 | I -0.872 | K -0.235 | M -0.459 | N -0.234 | P -0.093 | Q -0.181 | R -0.212 | S -0.128 | V -0.986 | W -0.779 | Y -0.691
L16: A -0.052 | C -0.213 | D -0.058 | E -0.133 | F -0.139 | G -0.506 | H -0.047 | I -0.174 | K -0.192 | M 0.316 | N -0.312 | P -0.615 | Q 0.034 | R 0.075 | T -0.095 | V -0.353 | W -0.122 | Y -0.228
V17: A -0.436 | D -0.702 | E -0.537 | F -0.711 | H -0.149 | I 0.013 | K -0.533 | L -0.415 | M -0.741 | Q -0.529 | R -0.751 | S -0.872 | T -0.524 | W -0.635 | Y -0.505
V18: A -0.433 | C -0.258 | D -0.367 | E -0.284 | F -0.374 | G -0.794 | H -0.456 | I 0.019 | K -0.541 | M -0.119 | N -0.305 | P -0.771 | Q -0.63 | R -0.508 | S -0.523 | T -0.26 | W -0.639 | Y -0.256
G19: A -0.86 | C -0.844 | D -0.716 | E -0.897 | F -0.863 | H -0.694 | I -1.08 | K -0.785 | L -0.951 | M -1.03 | N -0.64 | P -0.824 | Q -0.623 | R -0.739 | T -0.822 | V -0.795 | W -0.848 | Y -0.159
P20: A -0.381 | C -0.444 | E -0.139 | G -0.717 | H -0.123 | I 0.051 | K -0.026 | L -0.59 | M -0.763 | Q -0.15 | R -0.039 | S -0.408 | T -0.472 | V -0.449 | W -0.625 | Y -0.266
K21: A -0.186 | C -0.247 | D -0.19 | E -0.099 | G -0.04 | H -0.273 | I -0.53 | L -0.183 | M -0.031 | N -0.113 | P -0.884 | R -0.196 | S -0.233 | T -0.596 | W -0.458
G22: A -0.489 | C -0.712 | D -0.543 | E -0.389 | F -0.738 | H -0.769 | K -0.424 | L -0.587 | M -0.274 | N -0.631 | P -0.836 | Q -0.189 | R -0.504 | S -0.522 | T -0.68 | W -0.687
A23: C -0.352 | D -0.55 | E -0.082 | F -0.868 | G -0.443 | H -0.258 | I -0.332 | L -0.293 | M -0.027 | N -0.568 | Q 0.003 | R 0.063 | S -0.08 | T -0.012 | V -0.477 | W -0.553
T24: A -0.53 | C -0.574 | D -0.67 | E -0.304 | G -0.371 | H -0.28 | I -0.792 | K -0.346 | L -0.875 | M -0.786 | N 0.171 | P -1.02 | Q -0.818 | R -0.366 | S -0.731 | V -0.517 | W -0.553 | Y -0.589
I25: A -0.811 | C -0.58 | E -0.786 | F -0.905 | G -0.68 | H -0.62 | K -0.754 | L -0.165 | M -0.571 | P -0.64 | R -0.39 | T -0.75 | Y -0.502
K26: A -0.119 | C -0.911 | D -0.417 | F -0.786 | G -0.769 | H -0.66 | L -0.655 | M -0.212 | N -0.491 | P -0.56 | Q -0.343 | R -0.126 | S -0.483 | T -0.61 | V -0.747 | W -0.722 | Y -0.944
R27: A -0.37 | C -0.832 | D -0.656 | E -0.512 | F -0.755 | G -0.591 | I -0.901 | K 0.111 | L -0.665 | M -0.346 | N -0.59 | P -0.834 | Q -0.399 | S -0.465 | T -0.38 | V -0.577 | W -0.241
I28: A -0.695 | C -0.874 | E -0.952 | F -0.467 | G -0.883 | H -0.751 | L -0.559 | M -0.639 | P -0.376 | Q -0.576 | R -0.419 | T -0.288 | V -0.496 | W -1.2
Q29: A 0.106 | C -0.392 | D -0.34 | E -0.241 | F -0.882 | G -0.308 | I -0.736 | K -0.81 | M 0.205 | P -0.765 | R -0.549 | S -0.179 | T -0.619 | V -0.746 | W -0.629
Q30: A -0.01 | C -0.805 | D -0.053 | E -0.022 | F -0.773 | G -0.609 | H -0.23 | K -0.016 | L -0.505 | M -0.377 | P -0.899 | R -0.126 | S -0.435 | T -0.183 | V -0.536 | W -0.566 | Y -0.664
Q31: A -0.272 | C -0.69 | D -0.001 | E 0.252 | F -0.452 | G -0.57 | I -0.18 | K 0.035 | L -0.128 | M 0.048 | N -0.048 | P -0.65 | R 0.036 | S -0.319 | T -0.261 | V -0.109 | W -0.966
T32: A -0.712 | C -0.578 | D -0.575 | E -0.707 | H -0.488 | I -0.944 | L -0.734 | M -0.653 | P -0.654 | Q -0.669 | R -0.938 | V -0.682 | W -0.916 | Y -0.777
H33: A -0.182 | C -0.426 | D 0.184 | E -0.267 | F -0.438 | G 0.081 | K 0.016 | L -0.582 | M -0.213 | N 0.171 | P -0.845 | Q 0.088 | R -0.165 | T -0.744 | W -1.15 | Y -0.396
T34: A -0.877
